# Assay results published in article PMC3834811.
# Target: AtWRKY50 DBD_K26Q (Arabidopsis thaliana, UniProt Q8VWQ5 =M+99-173, K123Q;internal_change)
# Test: DPI-ELISA
binder,measurement,value
W2 (dsDNA) DNA 1: AAATTATTCAGCCATCAAAAGTTGACCAATAAT DNA 2: ATTATTGGTCAACTTTTGATGGCTGAATAATTT,binding result,binds
